Measured values from paper PMC7517352 (Frontiers in Microbiology, 2020).

Biological target: T1, VapC21 toxin (Rv2757c) of the VapBC21 complex co-expressed from pET-Duet (M. tuberculosis, UniProt P9WF91 1-138)
T1 construct: also called VapC21 (in VapBC21 complex); not shown: His6, N-terminal, kept
T1 sequence: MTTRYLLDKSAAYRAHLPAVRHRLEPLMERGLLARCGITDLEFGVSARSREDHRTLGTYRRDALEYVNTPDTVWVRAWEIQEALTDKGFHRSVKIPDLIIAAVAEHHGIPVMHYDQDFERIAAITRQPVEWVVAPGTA
Assay: SEC-MALS
Details: both partners purified

B1: VapB21 antitoxin (Rv2758c) of the VapBC21 complex co-expressed from pET-Duet (natural protein)
chain: MHRGYALVVCSPGVTRTMIDIDDDLLARAAKELGTTTKKDTVHAALRAALRASAARSLMNRMAENATGTQDEALVNAMWRDGHPENTA
notes: also called VapB21 (in VapBC21 complex)
- stoichiometry N: 1 antitoxin per toxin (4:4)
